How the values were obtained:
H3 22-41 = H3 22-41 (Homo sapiens, unmodified; biotin, attachment site not given); assay: FACS; yeast surface display titration
H3K18me2 = H3K18me2 (Homo sapiens, dimethyl-Lys18 (mature numbering); biotin, attachment site not given; limits assumed from the H3 1-21 control); assay: FACS; yeast surface display titration

Row | Binder | Kd (H3 22-41) [µM] | Kd (H3K18me2) [µM]
1 | bromo-adjacent homology domain of ASH1L (domain or fragment) NFHSFNVEKQQLCKCGFEKCRGIIGGKSQRVNGLTSSKNSQPMATHKKSGRSKEKRKSKHKLKKRRGHLSEEPSENINTPTRLTPQLQMKPMSNRERNFVLKHHVFLVRNWEKIRQKQEEVKHTSDNIHSASLYTRWNGICRDDGNIKSDVFMTQFSALQTARSVRTRRLAAAEENIEVARAARLAQIFKEICDGIISYKDSSRQALAAPLLNLPPKKKNADYYEKISDPLDLITIEKQILTGYYKTVEAFDADMLKVFRNAEKYYGRKSPVGRDVCRLRKAYYNARHEASAQIDEIVGETASEADSSETSVSEKENGHEKDDDVIRCICGLYKDEGLMIQCDKCMVWQHCDCMGVNSDVEHYLCEQCDPRPVDREVPMIPRPHYAQPGCVYFICLLRDDLLLRQGDCVYLMRDSRRTPDGHPVRQSYRLLSHINRDKLDIFRIEKLWKNEKEERFAFGHHYFRPHETHHSPSRRFYHNELFRVPLYEIIPLEAVVGTCCVLDLYTYCKGRPKGVKEQDVYICDYRLDKSAHLFYKIH | 6.5 | 
2 | tandem Tudor domains of UHRF1 (domain or fragment) WDETELGLYKVNEYVDARDTNMGAWFEAQVVRVTRKAPSRDEPCSSTSRPALEEDVIYHVKYDDYPENGVVQMNSRDVRARARTIIKWQDLEVGQVVMLNYNPDNPKERGFWYDAEISRKRETRTARELYANVVLGDDSLNDCRIIFVDEVFKIERPGE |  | 5
